Assay results as given in article PMC4928148 (Biochemistry, 2016).

Target: the molecule itself
Assay: crystal structure

B1: secreted (extracellular) catalase-peroxidase from Magnaporthe grisea, wild type (enzyme)
chain: QGCPFAKRDGTVDSSLPQKRADAPETTTFGRCAVKSNQAGGGTRSHDWWPCQLRLDVLRQFQPSQNPLGGDFDYAEAFQSLDYEAVKKDIAALMTESQDWWPADFGNYGGLFVRMAWHSAGTYRAMDGRGGGGMGQQRFAPLNSWPDNQNLDKARRLIWPIKQKYGNKISWADLMLLTGNVALENMGFKTLGFGGGRADTWQSDEAVYWGAETTFVPQGNDVRYNNSVDINARADKLEKPLAATHMGLIYVNPEGPNGTPDPAASAKDIREAFGRMGMNDTETVALIAGGHAFGKTHGAVKGSNIGPAPEAADLGMQGLGWHNSVGDGNGPNQMTSGLEVIWTKTPTKWSNGYLESLINNNWTLVESPAGAHQWEAVNGTVDYPDPFDKTKFRKATMLTSDLALINDPEYLKISQRWLEHPEELADAFAKAWFKLLHRDLGPTTRYLGPEVPKESFIWQDPLPAREGDLIDDADVDKLKAAILSTDGLDVSKLASTAMACATTYRNSDKRGGCNGARIALEPQRNWVSNNPTQLSAVLDALKKVQSDFNGSNGNKKVSLADLIVLGGTAAVEKAAKDAGVDIKVPFSAGRVDATQEQTDVTQFSYLEPQADGFRNYGRGTARARTEEIMVDKASQLTLTPPELTVLVGGMRALGANYDGSDVGVFTANKGKLTPDFFVNLVDMNIAWTASGADGESWVGTDRKSRSEKYKGSRADLVFGSHAELRAIAEVYAENGNQEKFVKDFVAAWTKVMNLDRFDLKVKK
  stoichiometry N: 2
